{"source": "FireProtDB (doi:10.1110/ps.073137708)", "parents": {"B1": {"name": "H69A, Q7SID9 (parent)", "chain": "STGPVAPLPTPPNFPNDIALFQQAYQNWSKEIMLDATWVCSPKTPQDVVRLANWAHEHDYKIRPRGAMHGWTPLTVEKGANVEKVILADTMTHLNGITVNTGGPVATVTAGAGASIEAIVTELQKHDLGWANLPAPGVLSIGGALAVNAHGAALPAVGQTTLPGHTYGSLSNLVTELTAVVWNGTTYALETYQRNDPRITPLLTNLGRCFLTSVTMQAGPNFRQRCQSYTDIPWRELFAPKGADGRTFEKFVAESGGAEAIWYPFTEKPWMKVWTVSPTKPDSSNEVGSLGSAGSLVGKPPQAREVSGPYNYIFSDNLPEPITDMIGAINAGNPGIAPLFGPAMYEITKLGLAATNANDIWGWSKDVQFYIKATTLRLTEGGGAVVTSRANIATVINDFTEWFHERIEFYRAKGEFPLNGPVEIRCCGLDQAADVKVPSVGPPTISATRPRPDHPDWDVAIWLNVLGVPGTPGMFEFYREMEQWMRSHYNNDDATFRPEWSKGWAFGPDPYTDNDIVTNKMRATYIEGVPTTENWDTARARYNQIDPHRVFTNGFMDKLLP"}}, "note": "Values joined by “and” are separate entries in the source; they are usually repeats but may differ in a detail not shown here. Equal entries are not always repeated.", "data": [{"variants_of": "B1", "settings": "Brevibacterium sterolicum; pH 7.5; 15 °C; Urea; Fluorescence; Potassium phosphate 50 mM; reversible: Yes (partial); structure 2I0K; whole UniProt chain shown", "values": [{"variant": "H69A", "denaturant midpoint (higher = more stable)": "2.9 M and 3.5 M and 2.7 M", "unfolding free energy": "1.53 kcal/mol and 1.36 kcal/mol and 1.2 kcal/mol"}]}]}
